± gives the standard deviation of the averaged measurements.
The sequences below were run on ATP (assay: switch fluorescence ratio, 500 uM ATP over buffer (Cy3 cluster intensity, sum of 5 cycles each) (fold (ratio)); higher = stronger signal-on switching upon ATP binding; sequences stand for … in TCGTCGGCAGCGTCAGATGTGTATAAGAGACAGTTTTTTTTTTTTTTTTTTTTTTTTT…TC). Conditions: aptamer strand: ATP DNA aptamer (quencher-CACCTGGGGGAGTATTGCGGAGGAAGG + anchor), 100 nM annealed; ATP concentration: 500 uM.
Method in brief: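 For every switch-domain sequence, the fluorescence ratio is the mean of per-cluster values, each being summed target-cycle Cy3 intensity over summed buffer-cycle Cy3 intensity. Clusters outside 100-1000 RFU were excluded. On a modified Illumina MiSeq flow-cell, the Cy3-labelled switching-strand clusters were annealed to 100 nM quencher-labelled ATP aptamer, imaged in selection buffer and then after 15 min with 500 uM ATP at 22 °C. Five such cycles were run, with NaOH stripping and re-annealing between them.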
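Also: ATP exposure 15 min at 22 °C before imaging.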

Row | Sequence | switch fluorescence ratio
1 | AAATGAATTT | 0.976 ± 0.014
2 | AAATGAGGGG | 0.992 ± 0.03
3 | AAATGCTACG | 1.01 ± 0.029
4 | AAATGCTTAG | 0.995 ± 0.011
5 | AAATGGAGTA | 1.01 ± 0.007
6 | AAATGGGAGA | 0.992 ± 0.026
7 | AAATGGGGTC | 0.998 ± 0.023
8 | AAATGGGTGA | 1.05 ± 0.017
9 | AAATGGGTTG | 1 ± 0.01
10 | AAATGGTAAT | 0.978 ± 0.036
11 | AAATGTGCGA | 0.977 ± 0.019
12 | AAATGTGGCA | 0.9862 ± 0.002
13 | AAATGTGTGG | 0.977 ± 0.019
14 | AAATGTTCTG | 0.948 ± 0.021
15 | AAATGTTTTG | 1.03 ± 0.026
16 | AAATTAAGGG | 1.02 ± 0.03
17 | AAATTAATCA | 1.04 ± 0.094
18 | AAATTACAGT | 0.99493 ± 0.00079
19 | AAATTATGCG | 0.99 ± 0.023
20 | AAATTATTCG | 1.03 ± 0.045
21 | AAATTCACTT | 0.997 ± 0.021
22 | AAATTCCGTG | 0.978 ± 0.043
23 | AAATTCTTCT | 1.04 ± 0.04
24 | AAATTGAAAT | 1.01 ± 0.031
25 | AAATTGATGG | 1 ± 0.084

Row | Sequence | switch fluorescence ratio
26 | AAATTGCTGT | 1.012 ± 0.0069
27 | AAATTGGCAG | 1.06 ± 0.16
28 | AAATTGTGTG | 0.999 ± 0.0037
29 | AAATTGTTTG | 0.989 ± 0.041
30 | AAATTTGCCA | 0.9566 ± 0.0066
31 | AAATTTGGTA | 1.04 ± 0.021
32 | AAATTTTACT | 1.02 ± 0.031
33 | AAATTTTGGC | 1.1 ± 0.042
34 | AACAACAGGA | 1.03 ± 0.045
35 | AACAACATAG | 1.02 ± 0.036
36 | AACAAGCTAT | 1.03 ± 0.055
37 | AACAAGGGCG | 1.03 ± 0.018
38 | AACAGAGGGG | 1.01 ± 0.018
39 | AACAGAGTAG | 0.976 ± 0.028
40 | AACAGATGGA | 1.16 ± 0.3
41 | AACAGGCGGG | 0.993 ± 0.027
42 | AACAGGGAAG | 1.02 ± 0.012
43 | AACAGGGGGA | 1.09 ± 0.14
44 | AACAGGGTGG | 1.016 ± 0.0021
45 | AACAGGGTTT | 1.01 ± 0.075
46 | AACAGTATTT | 1.04 ± 0.011
47 | AACAGTGAGC | 1.039 ± 0.0056
48 | AACAGTGTTT | 0.971 ± 0.065
49 | AACATACAGG | 1.28 ± 0.019
50 | AACATAGGTC | 1.06 ± 0.04

Row | Sequence | switch fluorescence ratio
51 | AACATAGTCA | 1.006 ± 0.0024
52 | AACATATTGG | 1.01 ± 0.073
53 | AACATGGGTT | 1.01 ± 0.031
54 | AACATGTCCT | 1.04 ± 0.031
55 | AACATTCGTT | 1.034 ± 0.0042
56 | AACATTGGTC | 1.01 ± 0.017
57 | AACCACAGGA | 1.057 ± 0.0019
58 | AACCACTTTA | 1.06 ± 0.021
59 | AACCAGAAGG | 1.01 ± 0.035
60 | AACCAGTGGC | 1.06 ± 0.079
61 | AACCAGTTTT | 0.98 ± 0.027
62 | AACCATCGGG | 0.976 ± 0.013
63 | AACCCATTTG | 1.29 ± 0.48
64 | AACCCGTTTC | 1.09 ± 0.07
65 | AACCGAACGA | 2.09 ± 0.072
66 | AACCGCGCTT | 1.18 ± 0.083
67 | AACCGGCTTA | 0.999 ± 0.026
68 | AACCGGGGAC | 1.31 ± 0.23
69 | AACCGTTTTT | 1.05 ± 0.063
70 | AACCTATTAT | 0.998 ± 0.019
71 | AACCTCTCAT | 1.08 ± 0.011
72 | AACCTGGGGA | 1.12 ± 0.19
73 | AACCTGGGGC | 1.15 ± 0.044
74 | AACCTGGGGT | 1.02 ± 0.0073
75 | AACCTTATCA | 1.07 ± 0.02

Row | Sequence | switch fluorescence ratio
76 | AACCTTTTGG | 1.03 ± 0.048
77 | AACGAGAGGA | 0.986 ± 0.012
78 | AACGCGACAT | 1.29 ± 0.022
79 | AACGCGGGGG | 0.983 ± 0.044
80 | AACGCGGTGG | 0.941 ± 0.017
81 | AACGGCCGTG | 1.02 ± 0.046
82 | AACGGCGGTG | 1.01 ± 0.019
83 | AACGGGCCAG | 0.997 ± 0.028
84 | AACGGTGCGG | 1.01 ± 0.026
85 | AACGGTGGTC | 1.03 ± 0.075
86 | AACGTAAATA | 1.11 ± 0.053
87 | AACGTAGATA | 1.042 ± 0.0098
88 | AACGTAGGTA | 1.038 ± 0.0051
89 | AACGTATGGG | 1.03 ± 0.039
90 | AACGTATGTT | 0.9895 ± 0.0028
91 | AACGTCTGGA | 0.9725 ± 0.0037
92 | AACGTGGCGA | 1.03 ± 0.047
93 | AACGTGTGGA | 0.9979 ± 0.0093
94 | AACGTTAATT | 1.025 ± 0.0081
95 | AACGTTGCTT | 1.01 ± 0.013
96 | AACGTTGGAG | 1.02 ± 0.019
97 | AACTAAATCT | 1.023 ± 0.00042
98 | AACTAACGTG | 1.3 ± 0.056
99 | AACTACCAGA | 1.062 ± 0.0045
100 | AACTAGCCGG | 0.961 ± 0.025

Reference: the supplement of paper PMC10126150
